Laboratory results: patent US8003357B2, “Acidophilic enzymes” (Helmholtz-Zentrum Fuer Infektionsforschung GmbH, priority 2005, dated 2011)

Legend:
Format in all cases: biochemical
[1] = pH and temperature dependence, stability and activity of recombinant acidic enzymes
Method: The acidic enzymes according to the invention were expressed in E. coli using the genomiccoding sequence for the respective enzyme from Ferroplasma acidiphilum, which are described in detail below. For enzymatic conversions, reaction conditions were in 100 mM sodium acetate buffer, 100 mM citrate buffer, 100 mM HEPES buffer for 2 minutes at 30° C., using p-nitrophenol propionate as the substrate for esterase, starch in the case of glycosidases, and HindIII digested λ DNA for ligase.
The activity was assayed using p-nitrophenol propionate as a substrate for esterase, starch for αGluFA and GlyFA1, GlyFA2, and HindIII digested λ DNA for LigFA.
The acidic enzymes according to the invention in vitro show similar elevated reaction temperatures. Substrates were as described for FIG. 2 above.
An overview of catalytic and molecular properties of acidic enzymes that were heterologously expressed in E. coli is given in the following Table III: […]

[2] = test system: 5′ phosphorylated oligonucleotides; Sau3A digested λ DNA; experiment: DNA ligation using LigFA; conditions: 40° C.
Method: For DNA ligation, double-stranded DNA fragments, each comprising a complementary 3′ overhang which were phosphorylated in 5′ can be ligated in a total volume of 20 μL ligation buffer (100 mM Na-citrate, pH 3.0, 10 μM Fe^2+, 0.01-0.1 mM ATP, optionally 0.5 mM dithiothreitol), 0.1-5 micrograms DNA and 1 to 20 nmoles ligase. The reaction conditions are 40° C. for 5 minutes to 2 hours, the reaction can be stopped by the addition of stop buffer 98% (vol/vol) formamide, 10 mM EDTA, 0.05% bromophenol blue, 0.05% xylene cyanol, 0.2% SDS), followed by heating to 95° C. for 5 minutes or, alternatively, by adding stop/loading buffer (30% sucrose, 150 mM EDTA, 0.15% SDS, 0.03% bromophenol blue), and heating to 90° C. for 2 minutes.
Oligonucleotides were phosphorylated in 5′.
Reactions were carried out in different buffers: HEPES, pH 7.0 (lane 1), HEPES, pH 6.0 (lane 2), sodium acetate, pH 5.0 (lane 3), sodium acetate, pH 4.0 (lane 4), sodium citrate, pH 3.0 to 0.5 (lanes 5 to 9, respectively). For detection of ligation, gel electrophoresis on a 10% denaturing polyacrylamide gel containing 7 M urea in TBE buffer (90 mM Tris-borate, 2.5 mM EDTA), staining with ethidium bromide. A densitometric reproduction of the gel region containing 60 base fragments is represented in FIG. 7. […]

[3] = test system: TOP 2 fragmented DNA; experiment: Religation of topoisomerase 2 induced DNA breaks; conditions: LigFA pH 4.0 to 2.0; T4 ligase acidic pH values; FIG. 9
Method: For a comparison of the religation activities of acidic LigFA to T4 ligase on DNA containing breaks caused by topoisomerase 2 (TOP 2), ligation activities were determined in vitro at various pH values. The results are shown in the non-denaturing agarose gel of FIG. 9.
DNA was incubated with TOP 2 to induce DNA damage. At pH 5.0, TOP 2 caused DNA breaks (lane 2) but not at pH 3.0 (lane 3).

[4] = Fe2+ content (ICP-MS) and Fe2+ dependence of activity, dialysis against EDTA; conditions: relative to wild type = 100; after dialysis against 1 mM EDTA; 100 mM sodium citrate, 10 mM FeCl2
Method: The UV-VIS absorption spectra of purified acidic enzymes are shown in FIG. 4, wherein the uninterrupted lines refer to Fe^2+ containing enzymes and the interrupted lines refer to enzymes after dialysis against EDTA containing buffer. The λ-max values found at ca. 572 nm correlate with the Fe^2+ content, i.e. disappear after incubation with EDTA or DTT for 24 h. ICP-MS analysis confirmed the presence of 0.82±0.10 mol Fe in EstFA, 0.34±0.08 mol Fe in αGluFA, […] and 0.63±0.09 mol Fe in LigFA.
In FIG. 5, relative activities of acidic enzymes with varying content of Fe^2+ are shown. For analysis, purified enzymes were incubated in 1 mM EDTA. At time intervals indicated, two aliquots were removed, one was used for hydrolysis of respective substrates, the other for ICP-MS analysis of Fe. For relative activities, activities before incubation with EDTA were used as 100% values.
When further investigating the dependence of the acidic enzymes according to the invention on Fe^2+, relative activity for EstFA, αGluFA and LigFA were investigated for their natural Fe^2+ content, e.g. wild-type, which was set to 100%, in comparison to the activity after dialysis against a 1 mM EDTA containing buffer.

B1: LigFA: DNA ligase obtainable from Ferroplasma acidiphilum, 595 amino acids, Seq. ID No. 3, Fe2+ dependent (protein, listed as Ferroplasma acidiphilum)
chain: MHLMNMVDPDFNSLIELSKSAGDMTKIEPAMLRNFLDESSLSSRGAPVEIKEIKDYKIKLDGRTLNARMYDDNNAKSAILYYHGGGFLFGNIETYDNYCRFLAKESGVKIISIEYRLAPEHKFPDAFNDAYDSFHYIAKKKKDFGIEGRIGVAGDSAGANLAAALCLKCRDGKTEMPAVQVLFYPSLAPDNFSRSFIEYSDNYVLTGKMIRYFGNMYSKNMQDLINPYFSPLVADDFSNLPPAIMVTNEYDPLRDPEETYVKKLREAGVRAVGIRGIGMIHGSATDFEVSDGARNIVKMVARIIPDYL
modifications: CDS (1)..(927) est FA
notes: ID No. 3, Fe2+ dependent
With B1 the “enzymatic stability at elevated temperatures” value ([1]; FIG. 2, LigFA pH 3.0, EstFA and αGluFA pH 2.0 at 40 and 50° C., GlyFA1 and GlyFA2 pH 4.0 at 40° C.) was “good stability”, the Optimum temperature ([1]; measured at optimum pH) was 40 °C and the “Optimum pH” value ([1]; measured at optimum temperature) was 1.5-3.0. The “ligation of Sau3A digested λ DNA” value ([2]; 20 nM LigFA, 2 hours) was “demonstrates ligation”, the “ligation of two oligonucleotides (35 and 25 bases) on a 70 base oligonucleotide” value ([2]; 20 nM ligFA, 5 minutes) was “ligation was obtained” and the “religation of TOP 2 fragmented DNA at acidic pH” value [3] was “clearly demonstrated”. The “activity, +EDTA” value [4] was 0.15%.
